The results in this text go back to article PMC10385607 (2023).

Test [1] deals with T1, Human ALCAM (28–501)-6xhistidine tag (human, UniProt Q13740 28-501).
T1 chain: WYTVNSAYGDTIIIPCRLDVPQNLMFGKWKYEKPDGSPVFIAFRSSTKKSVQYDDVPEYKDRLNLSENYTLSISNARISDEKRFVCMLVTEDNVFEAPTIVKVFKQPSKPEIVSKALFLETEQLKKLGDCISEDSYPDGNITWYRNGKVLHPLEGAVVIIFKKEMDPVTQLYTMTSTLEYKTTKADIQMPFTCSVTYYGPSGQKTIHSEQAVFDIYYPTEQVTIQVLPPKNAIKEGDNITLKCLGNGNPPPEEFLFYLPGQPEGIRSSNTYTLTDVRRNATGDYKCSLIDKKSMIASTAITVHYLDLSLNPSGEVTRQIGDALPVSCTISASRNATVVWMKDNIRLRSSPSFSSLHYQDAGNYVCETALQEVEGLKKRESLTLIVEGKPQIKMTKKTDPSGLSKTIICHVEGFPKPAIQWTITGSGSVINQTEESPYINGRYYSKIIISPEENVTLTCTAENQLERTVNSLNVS
The experiment in a line: SPR.

Test [2] deals with T1, Human ALCAM (28–501)-6xhistidine tag. The test is described as follows: SPR. (In general: Surface plasmon resonance follows binding to a sensor surface in real time, without labels.)
Test [3] has the same target. The experiment in a line: ELISA; competition with CD6-Fc.

B1: scFv IF8 (scFv, V domains shown)
VH: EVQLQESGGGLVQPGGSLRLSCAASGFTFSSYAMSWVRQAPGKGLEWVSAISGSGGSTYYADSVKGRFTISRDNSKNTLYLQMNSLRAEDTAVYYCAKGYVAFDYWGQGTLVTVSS
VL: SSELTQDPAVSVALGQTVRITCQGDSLRSYYASWYQQKPGQAPVLVIYGKNNRPSGIPDRFSGSSSGNTASLTITGAQAEDEADYYCNSSPPFSAEVVFGGGTKLTVL
For the molecule B1, in test [1], the koff stood at 0.00114 s⁻¹.

B2: scFv V200G1 (scFv, V domains shown)
VH: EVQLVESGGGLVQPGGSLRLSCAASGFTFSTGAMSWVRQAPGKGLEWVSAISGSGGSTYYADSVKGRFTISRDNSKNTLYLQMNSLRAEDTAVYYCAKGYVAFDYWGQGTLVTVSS
VL: SSVLTQPPSVSVAPGQTARITCQGDSLRSGYASWYQQKPGQAPVLVVYGKTGRPSGIPERFSGSSSGNTATLTISRVEAGDEADYYCNSSPPFSAEVVFGGGTKLTVL
Molecule B2 displayed a Kd in test [2] of 2.52 nM. The molecule also yielded an IC50 in test [3] of 31.3 nM.

B3: scFv V2D7 (scFv, V domains shown)
VH: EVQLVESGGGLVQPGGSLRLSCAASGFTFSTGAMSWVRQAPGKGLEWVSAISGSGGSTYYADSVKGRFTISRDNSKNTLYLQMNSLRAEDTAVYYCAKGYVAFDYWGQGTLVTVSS
VL: SSVLTQPPSVSVAPGQTARITCQGDSLRSGYASWYQQKPGQAPVLVVYGKNNRPSGIPERFSGSSSGNTATLTISRVEAGDEADYYCNSSPPFSAEVVFGGGTKLTVL
B3 yielded a Kd in test [2] of 2.62 nM. Also, the koff in test [1] is 0.000127 s⁻¹.

B4: scFv V20C10NC (scFv, V domains shown)
VH: EVQLVESGGGLVQPGGSLRLSCAASGFTFSTGAMSWVRQAPGKGLEWVSAISGTGGTTYYADSVKGRFTISRDNSKNTLYLQMNSLRAEDTAVYYCAKGYVAFDYWGQGTLVTVSS
VL: SSVLTQPPSVSVAPGQTARITCQGDSLRSGYASWYQQKPGQAPVLVVYPKMSRPSGIPERFSGSSSGNTATLTISRVEAGDEADYYCNSSPPFSAEVVFGGGTKLTVL
B4 returned a Kd in test [2] of 5.08 nM. For the same molecule, the IC50 in test [3] worked out at 29.2 nM. In test [1], this molecule returned a koff of 9.12e-05 s⁻¹.

B5: scFv OPT (scFv, V domains shown)
VH: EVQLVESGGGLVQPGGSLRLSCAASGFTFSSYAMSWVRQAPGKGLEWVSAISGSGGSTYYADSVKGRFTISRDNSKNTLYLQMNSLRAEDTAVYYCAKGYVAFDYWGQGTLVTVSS
VL: SSVLTQPPSVSVAPGQTARITCQGDSLRSYYASWYQQKPGQAPVLVVYGKNNRPSGIPERFSGSSSGNTATLTISRVEAGDEADYYCNSSPPFSAEVVFGGGTKLTVL
B5 returned a dissociation constant Kd in test [2] of 12.7 nM. Besides, the IC50 in test [3] is 69.2 nM. The molecule further registered a koff in test [1] of 0.0011 s⁻¹.

In general, koff refers to the first-order rate constant of dissociation. Higher therefore signals fast dissociation. A word on the Kd: it is the concentration at which binding is half-saturated. Lower therefore signals higher affinity. A word on the IC50: it is the concentration needed to halve the response being measured. Low values mean higher potency, high ones lower potency.
